According to US5834597:

B1: mouse M291 antibody (antibody, V domains shown)
VH: QVQLQQSGAELARPGASVKMSCKASGYTFISYTMHWVKQRPGQGLEWIGYINPRSGYTHYNQKLKDKATLTADKSSSSAYMQLSSLTSEDSAVYYCARSAYYDYDGFAYWGQGTLVTVSA
VL: QIVLTQSPAIMSASPGEKVTMTCSASSSVSYMNWYKQKSGTSPKRWTYDTSKLASGVPARFSGSGSGTSYSLTISSMEAEDAATYYCQQWSSNPPTFGSGTKLEIK

How the values were obtained:
[1] = target: human CD3 antigen on T cells (human); assay: competition with 125I-labelled mouse M291 on IL-2-activated human T cells, method of Berzofsky and Berkower
[2] = target: FcRII
[3] = target: human CD3 antigen on T cells (human); assay: flow cytometry competition on human T cells, FITC-conjugated murine OKT3 as tracer

| Molecule | Ka [1] [M⁻¹] | specific lysis of 51Cr-labeled K562 cells by retargeted T cell blasts (reverse lysis) [2] [%] | avidity, fold compared to that of the chimeric IgG1 [3] [fold] |
| --- | --- | --- | --- |
| humanized M291 IgG1 (from UniProt P01857-1) (antibody) | 1.6e+09 | – | – |
| chimeric OKT3 IgG2 (from UniProt P01859-1) (antibody) | – | < 32 | 2 to 3 |
| B1 | 1.6e+09 | – | – |
